Key:
[1] = biological target: C-terminal 4×His-tagged PhoExo I (PhoExo I-CHis) (Pyrococcus horikoshii OT3); assay: SEC; gel filtration on Superdex 200 HR 10/30, 10 mM Tris HCl pH 8.0, 200 mM NaCl; size estimated against standard proteins
[2] = biological target: PhoExo I (native, untagged) (Pyrococcus horikoshii OT3); assay: crystal structure; substrate-free native PhoExo I, three crystal forms (crystals 1-3); sitting-drop vapour diffusion at 20°C; trimer in the asymmetric unit (crystals 1, 2) or by the crystallographic 3-fold axis (crystal 3)
[3] = biological target: PhoExo I-CHis D80N mutant (Pyrococcus horikoshii OT3); assay: crystal structure; PhoExo I-CHis D80N cocrystallised with 7-nt ssDNAs (poly-dA, poly-dC, poly-dT; poly-dT crystal also soaked with 0.1 M MgCl2); 0.1 M MES pH 5.6-5.7, 12-14% PEG6000, 1 M LiCl
[4] = biological target: T1, PhoExo I-CHis (wild type) (Pyrococcus horikoshii OT3, UniProt A0A060P168 1-229); assay: EMSA; 0.1 mM EDTA, no Mg2+; stronger than for the DNA of same sequence; EMSA: 25 mM Hepes-NaOH pH 7.5, 50 mM NaCl, 0.1 mM EDTA, 0.1 mg/ml BSA, 5 nM probe, 0-1600 nM trimer, 5 min 55 C, then 0.05% glutaraldehyde 10 min at room temperature; 7.5% native PAGE in TBE; settings: protein: recombinant; tags: C-terminal 4xHis; chain copies: 3; label: 5'-32P; single strand
[5] = biological target: T1, PhoExo I-CHis (wild type); assay: EMSA; 0.1 mM EDTA, no Mg2+; affinity lower than for RNA; EMSA: 25 mM Hepes-NaOH pH 7.5, 50 mM NaCl, 0.1 mM EDTA, 0.1 mg/ml BSA, 5 nM probe, 0-1600 nM trimer, 5 min 55 C, then 0.05% glutaraldehyde 10 min at room temperature; 7.5% native PAGE in TBE; settings: protein: recombinant; tags: C-terminal 4xHis; chain copies: 3; label: 5'-32P; single strand

T1 sequence (A0A060P168 entry or part of it): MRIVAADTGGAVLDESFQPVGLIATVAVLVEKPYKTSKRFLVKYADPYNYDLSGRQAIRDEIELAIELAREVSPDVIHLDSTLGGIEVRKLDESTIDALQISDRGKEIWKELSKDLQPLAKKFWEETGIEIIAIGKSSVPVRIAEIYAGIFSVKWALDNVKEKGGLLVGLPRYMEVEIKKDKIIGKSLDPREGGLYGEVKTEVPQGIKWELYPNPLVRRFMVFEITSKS

**Q.** With “C-terminal 4×His-tagged PhoExo I (PhoExo I-CHis) (enzyme)” as the molecule, how does the stoichiometry N [1] read?
**A.** 3

**Q.** With PhoExo I (native, untagged) (enzyme) as the molecule, how does the stoichiometry N [2] read?
**A.** 3

**Q.** PhoExo I-CHis D80N mutant (enzyme) was tested. Which stoichiometry N [3] did it give?
**A.** 3

B1: 27-nt RNA (ssRNA)
RNA: AGCUAUGACCAUGAUUACGAAUUGCUU
**Q.** Does B1 bind [4]?
**A.** binds

B2: 27-nt DNA (ssDNA)
DNA: AGCTATGACCATGATTACGAATTGCTT
**Q.** Does B2 bind [5]?
**A.** binds
